In the supplement of paper PMC5998384:

Assays:
HeLa Kyoto [1] = assay: solubility in G1/S (NP-40 vs SDS abundance) (log2 ratio); higher = more soluble; details: cell cycle stage: G1/S
HeLa Kyoto [2] = assay: solubility change mitosis vs G1/S (difference of NP-40 vs SDS log2 ratios) (log2 ratio difference); higher = more soluble in mitosis
HeLa Kyoto [3] = assay: thermal stability score vs G1/S (z-score of summed log2 fold changes over temperatures); higher = more thermally stable than in G1/S
[4] = cell cycle stage: early G1 (4.5 h after nocodazole release)
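Throughout, for solubility change mitosis vs G1/S (difference of NP-40 vs SDS log2 ratios): synchronized HeLa Kyoto cells (double thymidine block for G1/S, nocodazole release for mitosis), protein amounts in NP-40 versus SDS lysates quantified by mass spectrometry, three biological replicates.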
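Throughout, for solubility in G1/S (NP-40 vs SDS abundance): HeLa Kyoto cells arrested at G1/S by double thymidine block, proteins quantified by TMT10plex mass spectrometry in mild NP-40 versus SDS extracts, three biological replicates.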
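Throughout, for thermal stability score vs G1/S (z-score of summed log2 fold changes over temperatures): synchronized HeLa Kyoto cells, proteins quantified by TMT10plex mass spectrometry, three biological replicates, mitosis taken 0.5 h after nocodazole release, G1/S directly after double thymidine block.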

SOX13, sequence (chain, as listed by the source): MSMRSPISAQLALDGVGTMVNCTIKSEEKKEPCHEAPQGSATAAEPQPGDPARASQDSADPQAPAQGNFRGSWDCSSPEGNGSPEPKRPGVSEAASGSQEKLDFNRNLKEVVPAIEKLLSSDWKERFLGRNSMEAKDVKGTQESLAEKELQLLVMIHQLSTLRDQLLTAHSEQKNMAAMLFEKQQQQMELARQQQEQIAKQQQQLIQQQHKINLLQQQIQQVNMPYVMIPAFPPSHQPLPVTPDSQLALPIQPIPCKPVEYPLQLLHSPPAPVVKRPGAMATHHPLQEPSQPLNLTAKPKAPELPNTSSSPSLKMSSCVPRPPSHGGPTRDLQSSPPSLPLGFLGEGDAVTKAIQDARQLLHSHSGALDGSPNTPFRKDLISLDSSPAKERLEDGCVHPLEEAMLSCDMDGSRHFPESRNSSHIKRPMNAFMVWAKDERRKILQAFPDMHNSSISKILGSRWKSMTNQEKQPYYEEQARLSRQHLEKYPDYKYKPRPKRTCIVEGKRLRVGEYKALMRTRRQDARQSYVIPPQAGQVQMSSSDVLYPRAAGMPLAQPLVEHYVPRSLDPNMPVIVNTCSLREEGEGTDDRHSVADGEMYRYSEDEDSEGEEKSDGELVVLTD

Substance | solubility in G1/S (log2) (HeLa Kyoto [1]) | solubility change mitosis (log2) (HeLa Kyoto [2]) | thermal stability score (HeLa Kyoto [3]; [4]) | thermal stability score (HeLa Kyoto [3]; cell cycle stage: mitosis)
MSSKQEIMSDQRFRRVAKDPRFWEMPEKDRKVKIDKRFRAMFHDKKFKLNYAVDKRGRPISHSTTEDLKRFYDLSDSDSNLSGEDSKALSQKKIKKKKTQTKKEIDSKNLVEKKKETKKANHKGSENKTDLDNSIGIKKMKTSCKFKIDSNISPKKDSKEFTQKNKKEKKNIVQHTTDSSLEEKQRTLDSGTSEIVKSPRIECSKTRREMQSVVQLIMTRDSDGYENSTDGEMCDKDALEEDSESVSEIGSDEESENEITSVGRASGDDDGSEDDEEEDEDEEEDEDEDSEDDDKSDSGPDLARGKGNIETSSEDEDDTADLFPEESGFEHAWRELDKDAPRADEITRRLAVCNMDWDRLKAKDLLALFNSFKPKGGVIFSVKIYPSEFGKERMKEEQVQGPVELLSIPEDAPEKDWTSREKLRDYQFKRLKYYYAVVDCDSPETASKIYEDCDGLEFESSCSFIDLRFIPDDITFDDEPKDVASEVNLTAYKPKYFTSAAMGTSTVEITWDETDHERITMLNRKFKKEELLDMDFQAYLASSSEDEEEIEEELQGDDGVNVEEDGKTKKSQKDDEEQIAKYRQLLQVIQEKEKKGKENDMEMEIKWVPGLKESAEEMVKNKLEGKDKLTPWEQFLEKKKEKKRLKRKQKALAEEASEEELPSDVDLNDPYFAEEVKQIGINKKSVKSAKDGTSPEEEIEIERQKAEMALLMMDEDEDSKKHFNYNKIVEHQNLSKKKKKQLMKKKELIEDDFEVNVNDARFQAMYTSHLFNLDPSDPNFKKTKAMEKILEEKARQRERKEQELTQAIKKKESEIEKESQRKSIDPALSMLIKSIKTKTEQFQARKKQKVK [ESF1] | -1.21 | 0.656 | 2.5 | 5.59
MEDPSEPDRLASADGGSPEEEEDGEREPLLPRIAWAHPRRGAPGSAVRLLDAAGEEGEAGDEELPLPPGDVGVSRSSSAELDRSRPAVSVTIGTSEMNAFLDDPEFADIMLRAEQAIEVGIFPERISQGSSGSYFVKDPKRKIIGVFKPKSEEPYGQLNPKWTKYVHKVCCPCCFGRGCLIPNQGYLSEAGAYLVDNKLHLSIVPKTKVVWLVSETFNYNAIDRAKSRGKKYALEKVPKVGRKFHRIGLPPKIGSFQLFVEGYKEAEYWLRKFEADPLPENIRKQFQSQFERLVILDYIIRNTDRGNDNWLVRYEKQKCEKEIDHKESKWIDDEEFLIKIAAIDNGLAFPFKHPDEWRAYPFHWAWLPQAKVPFSEEIRNLILPYISDMNFVQDLCEDLYELFKTDKGFDKATFESQMSVMRGQILNLTQALRDGKSPFQLVQIPCVIVERSQGGSQGRIVHLSNSFTQTVNCRKPFFSSW [PI4K2B] | 0.198 | -0.206 | 0.385 | 0.874
KIAA1671 | -1.28 | 1.05 | -0.863 | -1.71
MAELDQLPDESSSAKALVSLKEGSLSNTWNEKYSSLQKTPVWKGRNTSSAVEMPFRNSKRSRLFSDEDDRQINTRSPKRNQRVAMVPQKFTATMSTPDKKASQKIGFRLRNLLKLPKAHKWCIYEWFYSNIDKPLFEGDNDFCVCLKESFPNLKTRKLTRVEWGKIRRLMGKPRRCSSAFFEEERSALKQKRQKIRLLQQRKVADVSQFKDLPDEIPLPLVIGTKVTARLRGVHDGLFTGQIDAVDTLNATYRVTFDRTGLGTHTIPDYEVLSNEPHETMPIAAFGQKQRPSRFFMTPPRLHYTPPLQSPIIDNDPLLGQSPWRSKISGSDTETLGGFPVEFLIQVTRLSKILMIKKEHIKKLREMNTEAEKLKSYSMPISIEFQRRYATIVLELEQLNKDLNKVLHKVQQYCYELAPDQGLQPADQPTDMRRRCEEEAQEIVRHANSSTGQPCVENENLTDLISRLTAILLQIKCLAEGGDLNSFEFKSLTDSLNDIKSTIDASNISCFQNNVEIHVAHIQSGLSQMGNLHAFAANNTNRD [LIN9] | 0.183 | 0.143 | 2.27 | 3.4
MESGGRPSLCQFILLGTTSVVTAALYSVYRQKARVSQELKGAKKVHLGEDLKSILSEAPGKCVPYAVIEGAVRSVKETLNSQFVENCKGVIQRLTLQEHKMVWNRTTHLWNDCSKIIHQRTNTVPFDLVPHEDGVDVAVRVLKPLDSVDLGLETVYEKFHPSIQSFTDVIGHYISGERPKGIQETEEMLKVGATLTGVGELVLDNNSVRLQPPKQGMQYYLSSQDFDSLLQRQESSVRLWKVLALVFGFATCATLFFILRKQYLQRQERLRLKQMQEEFQEHEAQLLSRAKPEDRESLKSACVVCLSSFKSCVFLECGHVCSCTECYRALPEPKKCPICRQAITRVIPLYNS [MUL1] | 0.127 | -0.00588 | -0.138 | 0.791
MLKKQSAGLVLWGAILFVAWNALLLLFFWTRPAPGRPPSVSALDGDPASLTREVIRLAQDAEVELERQRGLLQQIGDALSSQRGRVPTAAPPAQPRVPVTPAPAVIPILVIACDRSTVRRCLDKLLHYRPSAELFPIIVSQDCGHEETAQAIASYGSAVTHIRQPDLSSIAVPPDHRKFQGYYKIARHYRWALGQVFRQFRFPAAVVVEDDLEVAPDFFEYFRATYPLLKADPSLWCVSAWNDNGKEQMVDASRPELLYRTDFFPGLGWLLLAELWAELEPKWPKAFWDDWMRRPEQRQGRACIRPEISRTMTFGRKGVSHGQFFDQHLKFIKLNQQFVHFTQLDLSYLQREAYDRDFLARVYGAPQLQVEKVRTNDRKELGEVRVQYTGRDSFKAFAKALGVMDDLKSGVPRAGYRGIVTFQFRGRRVHLAPPLTWEGYDPSWN [MGAT1] | -0.0579 | 0.0597 | 0.289 | 0.0296
MDEETRHSLECIQANQIFPRKQLIREDENLQVPFLELHGESTEFVGRAEDAIIALSNYRLHIKFKESLVNVPLQLIESVECRDIFQLHLTCKDCKVIRCQFSTFEQCQEWLKRLNNAIRPPAKIEDLFSFAYHAWCMEVYASEKEQHGDLCRPGEHVTSRFKNEVERMGFDMNNAWRISNINEKYKLCGSYPQELIVPAWITDKELESVSSFRSWKRIPAVIYRHQSNGAVIARCGQPEVSWWGWRNADDEHLVQSVAKACASDSRSSGSKLSTRNTSRDFPNGGDLSDVEFDSSLSNASGAESLAIQPQKLLILDARSYAAAVANRAKGGGCECPEYYPNCEVVFMGMANIHSIRRSFQSLRLLCTQMPDPGNWLSALESTKWLHHLSVLLKSALLVVHAVDQDQRPVLVHCSDGWDRTPQIVALAKLLLDPYYRTIEGFQVLVEMEWLDFGHKFADRCGHGENSDDLNERCPVFLQWLDCVHQLQRQFPCSFEFNEAFLVKLVQHTYSCLFGTFLCNNAKERGEKHTQERTCSVWSLLRAGNKAFKNLLYSSQSEAVLYPVCHVRNLMLWSAVYLPCPSPTTPVDDSCAPYPAPGTSPDDPPLSRLPKTRSYDNLTTACDNTVPLASRRCSDPSLNEKWQEHRRSLELSSLAGPGEDPLSADSLGKPTRVPGGAELSVAAGVAEGQMENILQEATKEESGVEEPAHRAGIEIQEGKEDPLLEKESRRKTPEASAIGLHQDPELGDAALRSHLDMSWPLFSQGISEQQSGLSVLLSSLQVPPRGEDSLEVPVEQFRIEEIAEGREEAVLPIPVDAKVGYGTSQSCSLLPSQVPFETRGPNVDSSTDMLVEDKVKSVSGPQGHHRSCLVNSGKDRLPQTMEPSPSETSLVERPQVGSVVHRTSLGSTLSLTRSPCALPLAECKEGLVCNGAPETENRASEQPPGLSTLQMYPTPNGHCANGEAGRSKDSLSRQLSAMSCSSAHLHSRNLHHKWLHSHSGRPSATSSPDQPSRSHLDDDGMSVYTDTIQQRLRQIESGHQQEVETLKKQVQELKSRLESQYLTSSLHFNGDFGDEVTSIPDSESNLDQNCLSRCSTEIFSEASWEQVDKQDTEMTRWLPDHLAAHCYACDSAFWLASRKHHCRNCGNVFCSSCCNQKVPVPSQQLFEPSRVCKSCYSSLHPTSSSIDLELDKPIAATSN [MTMR3] | -0.000164 | -0.15 | -0.332 | -0.143
SOX13 | 0.191 | 0.0877 | 0.734 | 0.151
MGFNLTFHLSYKFRLLLLLTLCLTVVGWATSNYFVGAIQEIPKAKEFMANFHKTLILGKGKTLTNEASTKKVELDNCPSVSPYLRGQSKLIFKPDLTLEEVQAENPKVSRGRYRPQECKALQRVAILVPHRNREKHLMYLLEHLHPFLQRQQLDYGIYVIHQAEGKKFNRAKLLNVGYLEALKEENWDCFIFHDVDLVPENDFNLYKCEEHPKHLVVGRNSTGYRLRYSGYFGGVTALSREQFFKVNGFSNNYWGWGGEDDDLRLRVELQRMKISRPLPEVGKYTMVFHTRDKGNEVNAERMKLLHQVSRVWRTDGLSSCSYKLVSVEHNPLYINITVDFWFGA [B4GALT4] | 0.167 | -0.14 | -0.773 | -0.781
